From publication PMC13600239

What was measured:
[1] = target: Rmo2^HMA (integrated HMA domain of the barley tandem kinase protein Rmo2) (barley); test: ITC; […]; 25°C; 20 mM HEPES pH 7.5, 150 mM NaCl; triplicate, […]
Rwt7^HMA-6His (wheat) = test: as above

Q: With “PBY2 (Magnaporthe oryzae effector) (natural protein)” as the substance, how does the Kd [1] read?
A: 0.0535 µM

Q: For “PWT7 (Magnaporthe oryzae effector) (natural protein)”, which Kd (Rwt7^HMA-6His (wheat)) is on record?
A: 0.00292 µM
